Test results reported in the DeepSol protein solubility set.

Test: soluble on expression in E. coli; label from the status in PepcDB or PDB records

Sequence | soluble on expression in E. coli
MLICNSSFPYLQVDYKIGVKGLLAKSKEDIDKCCKGEYFMQLKYVDTKEEIIAINRKSKHIEPHLHNALEIVCVTSGSLELGVGQELYHMEKGDIGFVFPDVIHHYQVLTPGVNKATYLIASPFSIDKFADIMQSMAPEYPIIKAEKVEPEVYRVINAILETEQSDITVAQAYLQIVLARCIGKLNLVEKSSVGSNDLIYQTVSYISANFKKKFSLEEMAKDLGVGKYVLSRLFSKTFHRNFNQYLNDARLNYACHRLENTSDSITNICLDSGFESQRTFNRVFKEKYKISPSDYRSTCVKEMLS | not soluble
GSHNLACPTPKEDGLAQQQTQLNLRSLLVNPEGPTLMRLNSVQSSERPLFLVHPIEGSTTVFHSLASRLSIPTYGLQCTRAAPLDSIHSLAAYYIDCIRQVQPEGPYRVAGYSYGACVAFEMCSQLQAQQSPAPTHNSLFLFDGSPTYVLAYTQSYRAKLTPGCEAEAETEAICFFVQQFTDMEHNRVLEALLPLKGLEERVAAAVDLIIKSHQGLDRQELSFAARSFYYKLRAAEQYTPKAKYHGNVMLLRAKTGGAYGEDLGADYNLSQVCDGKVSVHVIEGDHRTLLEGSGLESIISIIHSSLAEPRVSVREG | soluble
VLQLAEQIDVVIFDLNGTLTTGVPVVKEYAVLNDADLSSEHFLSICNVLEGQSKHPFGKAIQSFTQGINKQKFNIANLDHSNHSGISAEINGIQYTIGSKTLMQEIGISTSSLENQMNLVAGDSLVFLARNKQLLGYLVITDPLRKDAKQTVDALIKMGKEVHLCTGADEKTAYRYAQALGIKKVHANCVATTINTEDRSKPVYIKSLQNQGLKVAMIGDAANDANALAASDFGIAVLSQDSDEITQQHASAIIQSGTILPIANAFAISKQTVNNINQNLLISLGYNLTTV | not soluble
KKISQYACQRRTTLNNYNQLFTDALDILAENDELRENEGSCLAFMRASSVLKSLPFPITSMKDTEGIPCLGDKVKSIIEGIIEDGESSEAKAVLNDERYKSFKLFTSVFGVGLKTAEKWFRMGFRTLSKIQSDKSLRFTQMQKAGFLYYEDLVSCVNRPEAEAVSMLVKEAVVTFLPDALVTMTGGFRRGKMTGHDVDFLITSPEATEDEEQQLLHKVTDFWKQQGLLLYCDILESTFEKFKQPSRKVDALDHFQKCFLILKLDHGRVHSEKSGQQEGKGWKAIRVDLVMCPYDRRAFALLGWTGSRQFERDLRRYATHERKMMLDNHALYDRTKRVFLEAESEEEIFAHLGLDYIEPWERNA | soluble
MSYPLFDKDEHWHKPEQAFLTDDHRTILRFAVEALMSGKGAVLVTLVEIRGGAARPLGAQMVVREDGRYCGFVSGGCVEAAAAFEALEMMGSGRDREIRYGEGSPWFDIVLPCGGGITLTLHKLRSAQPLLAVLNRLEQRKPVGLRYDPQAQSLVCLPTQTRTGWNLNGFEVGFRPCVRLMIYGRSLEAQATASLAAATGYDSHIFDLFPASASAQIDTDTAVILLCHDLNRELPVLQAAREAKPFYLGALGSYRTHTLRLQKLHELGWSREETTQIRAPVGIFPKARDAHTLALSVLAEVASVRLHQEEDSCLPPSS | not soluble
MSLDFREVIEQRYHQLLSRYIAELTETSLYQAQKFSRKTIEHQIPPEEIISIHRKVLKELYPSLPEDVFHSLDFLIEVMIGYGMAYQEHQTLRGIQQEIKSEIEIAANVQQTLLGTKVPQEEALDIGAISVPAKQMSGDYYHFVKDKESINIAIADVIGKGIPAALCMSMIKYAMDSLPETGIHPSQVLKNLNRVVEQNVDASMFITMFYANYNMDKHQFTYASAGHEPGFYYSQKDNTFYDLEAKGLVLGISQDYDYKQFDQHLEKGDMIVLFSDGVTECRTENGFLERPDLQKLIEEHMCSSAQEMVKNIYDSLLKLQDFQLHDDFTLIVLRRKVEGGSHHHHHH | soluble
MLDVQHSKFGFTKGCIIAVFLLSLSRTLNRGQLSLDRFKFWQPTSQLLALDMCLCDASALEHHHHHH | not soluble
MYEQQQHFMDLQSDSGFGDDSSWLAGDDDLRLSPHQSAAGTNSGNENLDRRLLKDLVEMVPLIEHYMEHKERSSFKRRGSMIYTKMPSKESLSRRGRNASQTVPGRKKRDQEGNDDVMNNSREDDENAKALAGAEKEEMSRLREQVNDLQTKLSEKEEVLKSMEMSKNQVNEIQEKLEATNRLVAEKDMLIKSMQLQLSDTKIKLADKQAALEKTQWEAKTTGTRAIKLQEQLDAVEGDISTFTRVFETLAKTDSKKPDRDYDAVPYEFDHLPYLDDVDETDLRKMEEARLAYVAAVNTAKEREDEESLVMAAQARAYLQSLAFTY | soluble
